Usually Tm stands for the temperature at the midpoint of the melting transition.

The nature of the data set: melting temperature; melt of duplexes. The note with it: sodium 0.0675 M; strand 1 µM.
With “CGACGTGCAGTATGTGCTG+CAGCACATTGGGCACGTCG ((((((((...((((((((+))))))))...))))))))”, the Tm came to 48.8 °C.

As for “CGACGTGCATAATGTGCTG+CAGCACATGGCGCACGTCG ((((((((...((((((((+))))))))...))))))))”, the midpoint of thermal melting (Tm) worked out at 53 °C. Regarding “CGACGTGCCATATGTGCTG+CAGCACATAGTGCACGTCG ((((((((..(((((((((+)))))))))..))))))))”, the Tm worked out at 47.1 °C. In the case of “CGACGTGCACCATGTGCTG+CAGCACATGCAGCACGTCG ((((((((..(((((((((+)))))))))..))))))))” it was 50.4 °C. Regarding “CGACGTGCTGCATGTGCTG+CAGCACATTGCGCACGTCG ((((((((...((((((((+))))))))...))))))))”, the Tm was 53.5 °C.

On to “CGACGTGCGCTATGTGCTG+CAGCACATGAAGCACGTCG ((((((((...((((((((+))))))))...))))))))”, for which the midpoint of thermal melting (Tm) came to 53.9 °C. “CGACGTGCGTGATGTGCTG+CAGCACATACCGCACGTCG (((((((((..((((((((+))))))))..)))))))))”: the Tm came to 55.3 °C. Turning to “CGACGTGCTGCATGTGCTG+CAGCACATGGAGCACGTCG (((((((((.(((((((((+))))))))).)))))))))”, the Tm worked out at 61.2 °C. For the substance “CGACGTGCCTCATGTGCTG+CAGCACATGCCGCACGTCG ((((((((..(((((((((+)))))))))..))))))))”, the midpoint of thermal melting (Tm) was found to be 51.4 °C. For “CGACGTGCATCATGTGCTG+CAGCACATTCTGCACGTCG (((((((((..((((((((+))))))))..)))))))))”, the midpoint of thermal melting (Tm) is 50.5 °C.

As for “CGACGTGCATTATGTGCTG+CAGCACATCAGGCACGTCG ((((((((.(.((((((((+)))))))).).))))))))”, the midpoint of thermal melting (Tm) is 49.9 °C. For “CGACGTGCTAGATGTGCTG+CAGCACATGGTGCACGTCG ((((((((...((((((((+))))))))...))))))))” the value was 46.9 °C; for “CGACGTGCCCAATGTGCTG+CAGCACATGAGGCACGTCG (((((((((..((((((((+))))))))..)))))))))”, 56.1 °C; for “CGACGTGCCGCATGTGCTG+CAGCACATTAGGCACGTCG (((((((((..((((((((+))))))))..)))))))))”, 55.3 °C. Turning to “CGACGTGCTGGATGTGCTG+CAGCACATCCTGCACGTCG ((((((((.((((((((((+)))))))))).))))))))”, the Tm amounted to 61.2 °C. On to “CGACGTGCAGCATGTGCTG+CAGCACATATTGCACGTCG (((((((((..((((((((+))))))))..)))))))))”, for which the Tm was determined as 49.1 °C.

As for “CGACGTGCAGCATGTGCTG+CAGCACATTGGGCACGTCG ((((((((...((((((((+))))))))...))))))))”, the midpoint of thermal melting (Tm) was determined as 47.2 °C.

With “CGACGTGCTTGATGTGCTG+CAGCACATCGAGCACGTCG (((((((((.(((((((((+))))))))).)))))))))”, the Tm was found to be 60.6 °C. In the case of “CGACGTGCAATATGTGCTG+CAGCACATTTCGCACGTCG ((((((((.(.((((((((+)))))))).).))))))))” it was 50.1 °C; in that of “CGACGTGCGCTATGTGCTG+CAGCACATCGAGCACGTCG ((((((((.(.((((((((+)))))))).).))))))))”, 53.1 °C. For “CGACGTGCCACATGTGCTG+CAGCACATTCGGCACGTCG (((((((((..((((((((+))))))))..)))))))))” the value was 53.4 °C; for “CGACGTGCCTAATGTGCTG+CAGCACATGGAGCACGTCG ((((((((...((((((((+))))))))...))))))))”, 51.9 °C. Regarding “CGACGTGCAGAATGTGCTG+CAGCACATCCTGCACGTCG ((((((((((.((((((((+)))))))).))))))))))”, the midpoint of thermal melting (Tm) stood at 57.4 °C. As for “CGACGTGCAATATGTGCTG+CAGCACATAAAGCACGTCG ((((((((..(((((((((+)))))))))..))))))))”, the midpoint of thermal melting (Tm) was 52 °C. Take “CGACGTGCTGAATGTGCTG+CAGCACATCTGGCACGTCG ((((((((...((((((((+))))))))...))))))))”: the Tm is 51.7 °C. Consider “CGACGTGCACGATGTGCTG+CAGCACATGGTGCACGTCG ((((((((((.((((((((+)))))))).))))))))))”, for which the melting temperature (Tm) worked out at 55.8 °C.

Consider “CGACGTGCTAAATGTGCTG+CAGCACATCACGCACGTCG ((((((((...((((((((+))))))))...))))))))”, for which the Tm was found to be 49 °C. For “CGACGTGCATGATGTGCTG+CAGCACATCCAGCACGTCG ((((((((..(((((((((+)))))))))..))))))))” the value was 53.6 °C.

Consider “CGACGTGCGACATGTGCTG+CAGCACATGGGGCACGTCG ((((((((..(((((((((+)))))))))..))))))))”, for which the Tm is 58.4 °C. On to “CGACGTGCCGAATGTGCTG+CAGCACATTCCGCACGTCG ((((((((.((((((((((+)))))))))).))))))))”, for which the Tm stood at 56 °C.

On to “CGACGTGCCTGATGTGCTG+CAGCACATCGAGCACGTCG ((((((((..(((((((((+)))))))))..))))))))”, for which the Tm was determined as 55.3 °C.

With “CGACGTGCGCTATGTGCTG+CAGCACATCCGGCACGTCG ((((((((...((((((((+))))))))...))))))))”, the midpoint of thermal melting (Tm) is 48.1 °C. In the case of “CGACGTGCCGAATGTGCTG+CAGCACATCGCGCACGTCG ((((((((...((((((((+))))))))...))))))))” it was 54.7 °C; in that of “CGACGTGCACGATGTGCTG+CAGCACATCACGCACGTCG ((((((((..(((((((((+)))))))))..))))))))”, 51.9 °C. In the case of “CGACGTGCTATATGTGCTG+CAGCACATCCCGCACGTCG ((((((((...((((((((+))))))))...))))))))” it was 47.2 °C; in that of “CGACGTGCCTCATGTGCTG+CAGCACATCATGCACGTCG ((((((((.(.((((((((+)))))))).).))))))))”, 47.2 °C. In the case of “CGACGTGCGACATGTGCTG+CAGCACATCTAGCACGTCG ((((((((.(.((((((((+)))))))).).))))))))” it was 51.5 °C; in that of “CGACGTGCATTATGTGCTG+CAGCACATGCTGCACGTCG (((((((((..((((((((+))))))))..)))))))))”, 49 °C. Turning to “CGACGTGCCGCATGTGCTG+CAGCACATCCGGCACGTCG ((((((((((.((((((((+)))))))).))))))))))”, the Tm was found to be 58.2 °C. For the substance “CGACGTGCTCGATGTGCTG+CAGCACATGGTGCACGTCG ((((((((.(.((((((((+)))))))).).))))))))”, the midpoint of thermal melting (Tm) was found to be 49.7 °C. In the case of “CGACGTGCGGTATGTGCTG+CAGCACATTTAGCACGTCG ((((((((...((((((((+))))))))...))))))))” it was 54.5 °C. Consider “CGACGTGCTGTATGTGCTG+CAGCACATCCTGCACGTCG ((((((((.(.((((((((+)))))))).).))))))))”, for which the Tm was found to be 51.5 °C.

Consider “CGACGTGCTATATGTGCTG+CAGCACATCTCGCACGTCG ((((((((.(.((((((((+)))))))).).))))))))”, for which the melting temperature (Tm) stood at 48.3 °C.

In the case of “CGACGTGCAGAATGTGCTG+CAGCACATTTAGCACGTCG ((((((((..(((((((((+)))))))))..))))))))”, the midpoint of thermal melting (Tm) was 53.3 °C. For “CGACGTGCGTGATGTGCTG+CAGCACATCCCGCACGTCG (((((((((.(((((((((+))))))))).)))))))))”, the Tm worked out at 59.4 °C. As to “CGACGTGCCTTATGTGCTG+CAGCACATTCAGCACGTCG ((((((((...((((((((+))))))))...))))))))”, the midpoint of thermal melting (Tm) was 49 °C. Turning to “CGACGTGCACTATGTGCTG+CAGCACATGCAGCACGTCG ((((((((...((((((((+))))))))...))))))))”, the Tm is 45.3 °C. For the substance “CGACGTGCCAAATGTGCTG+CAGCACATTCTGCACGTCG ((((((((..(((((((((+)))))))))..))))))))”, the Tm was determined as 51.5 °C.

As to “CGACGTGCTAGATGTGCTG+CAGCACATAGAGCACGTCG (((((((((..((((((((+))))))))..)))))))))”, the melting temperature (Tm) came out at 53.8 °C. As for “CGACGTGCCTCATGTGCTG+CAGCACATCGTGCACGTCG ((((((((...((((((((+))))))))...))))))))”, the midpoint of thermal melting (Tm) is 43 °C.

On to “CGACGTGCGCAATGTGCTG+CAGCACATGTAGCACGTCG ((((((((...((((((((+))))))))...))))))))”, for which the Tm was found to be 57.5 °C. Take “CGACGTGCTCTATGTGCTG+CAGCACATGCTGCACGTCG ((((((((...((((((((+))))))))...))))))))”: the Tm was determined as 47 °C.

Take “CGACGTGCGACATGTGCTG+CAGCACATTAAGCACGTCG ((((((((...((((((((+))))))))...))))))))”: the Tm was 53.3 °C.

“CGACGTGCGACATGTGCTG+CAGCACATCGCGCACGTCG (((((((((..((((((((+))))))))..)))))))))”: the Tm turned out to be 54.1 °C. For “CGACGTGCGTCATGTGCTG+CAGCACATCATGCACGTCG ((((((((.(.((((((((+)))))))).).))))))))” the value was 50.8 °C; for “CGACGTGCTGCATGTGCTG+CAGCACATACTGCACGTCG ((((((((.(.((((((((+)))))))).).))))))))”, 53 °C.

With “CGACGTGCACGATGTGCTG+CAGCACATAAAGCACGTCG ((((((((...((((((((+))))))))...))))))))”, the Tm came to 46.8 °C. For “CGACGTGCATCATGTGCTG+CAGCACATCGGGCACGTCG ((((((((...((((((((+))))))))...))))))))” the value was 47.9 °C; for “CGACGTGCCCTATGTGCTG+CAGCACATGGGGCACGTCG ((((((((((.((((((((+)))))))).))))))))))”, 61.4 °C; for “CGACGTGCAGTATGTGCTG+CAGCACATAAAGCACGTCG ((((((((..(((((((((+)))))))))..))))))))”, 51.7 °C. In the case of “CGACGTGCCAGATGTGCTG+CAGCACATTCCGCACGTCG ((((((((...((((((((+))))))))...))))))))” it was 49.6 °C; in that of “CGACGTGCATTATGTGCTG+CAGCACATGTGGCACGTCG ((((((((...((((((((+))))))))...))))))))”, 49.2 °C. In the case of “CGACGTGCACCATGTGCTG+CAGCACATCAAGCACGTCG ((((((((...((((((((+))))))))...))))))))” it was 42.8 °C; in that of “CGACGTGCGTTATGTGCTG+CAGCACATTATGCACGTCG ((((((((.(.((((((((+)))))))).).))))))))”, 53 °C.

For the substance “CGACGTGCCTTATGTGCTG+CAGCACATCTGGCACGTCG (((((((((..((((((((+))))))))..)))))))))”, the Tm was 53.7 °C. On to “CGACGTGCAGGATGTGCTG+CAGCACATATAGCACGTCG ((((((((...((((((((+))))))))...))))))))”, for which the midpoint of thermal melting (Tm) was determined as 50.6 °C.

The values are drawn from the array DNA melting data of Ke et al..
